# T1: B7H3 (human, UniProt Q5ZPR3 29-466, limits assumed)
# T1 sequence (looked up): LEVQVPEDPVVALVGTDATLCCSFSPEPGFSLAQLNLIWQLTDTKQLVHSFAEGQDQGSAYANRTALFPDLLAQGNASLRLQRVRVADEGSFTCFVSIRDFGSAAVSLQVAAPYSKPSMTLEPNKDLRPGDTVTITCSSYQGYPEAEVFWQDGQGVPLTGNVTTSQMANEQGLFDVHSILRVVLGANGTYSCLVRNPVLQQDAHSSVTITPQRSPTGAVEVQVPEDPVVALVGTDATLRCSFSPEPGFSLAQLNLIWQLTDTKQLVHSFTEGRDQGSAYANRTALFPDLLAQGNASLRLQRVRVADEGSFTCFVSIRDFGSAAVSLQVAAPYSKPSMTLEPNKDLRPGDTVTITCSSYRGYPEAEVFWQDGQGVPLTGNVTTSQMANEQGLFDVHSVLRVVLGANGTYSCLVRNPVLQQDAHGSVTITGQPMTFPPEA
# B1: Ly2366 (other)
# chain 1: QVQLVQSGAEVKKPGASVKVSCKASGYTFTSYVMHWVRQKPGQGLEWIGYINPYNEGTESTDKFKGRATMTSDKSTSTVYMELSSLRSEDTAVYYCASIYYGYEGTYFGVWGQGTLVTVSSASTKGPSVFPLAPSSKSTSGGTAALGCLVKDYFPEPVTVSWNSGALTSGVHTFPAVLQSSGLYSLSSVVTVPSSSLGTQTYICNVNHKPSNTKVDKKVEPKSCGGGGSGGGGSEVQLVESGGGLVQPGGSLRLSCAASGFTFSTYAMNWVRQAPGKGLEWVGRIRSKYNNYATYYADSVKGRFTISRDDSKNSLYLQMNSLKTEDTAVYYCVRHGNFGNSYVSWFAYWGQGTLVTVSSGGGGSDKTHTCPPCPAPEAAGPSVFLFPPKPKDTLMISRTPEVTCVVVDVSHEDPEVKFNWYVDGVEVHNAKTKPREEQYNSTYRVVSVLTVLHQDWLNGKEYKCKVSNKALPAPIEKTISKAKGQPREPQVYTLPPSREEMTKNQVSLWCLVKGFYPSDIAVEWESNGQPENNYKTTPPVLDSDGSFFLYSKLTVDKSRWQQGNVFSCSVMHEALHNHYTQKSLSLSPGGGGGSGGGGSGGGGSGGGGSQVQLVQSGAEVKKPGASVKVSCKASGYTFAGFEMHWVRQAPGQGLEWMGAIDPKTGGTDYNQKFKDRVTMTRDTSISTAYMELSRLRSDDTAVYYCARDLGYFDVWGQGTLVTVSS
# chain 2: QVQLVQSGAEVKKPGASVKVSCKASGYTFTSYVMHWVRQKPGQGLEWIGYINPYNEGTESTDKFKGRATMTSDKSTSTVYMELSSLRSEDTAVYYCASIYYGYEGTYFGVWGQGTLVTVSSASTKGPSVFPLAPSSKSTSGGTAALGCLVKDYFPEPVTVSWNSGALTSGVHTFPAVLQSSGLYSLSSVVTVPSSSLGTQTYICNVNHKPSNTKVDKKVEPKSCGGGGSGGGGSQAVVTQEPSLTVSPGGTVTLTCRSSTGAVTTSNYANWVQQKPGQAPRGLIGGTNKRAPWTPARFSGSLLGGKAALTITGAQAEDEADYYCALWYSNLWVFGGGTKLTVLGGGGSDKTHTCPPCPAPEAAGPSVFLFPPKPKDTLMISRTPEVTCVVVDVSHEDPEVKFNWYVDGVEVHNAKTKPREEQYNSTYRVVSVLTVLHQDWLNGKEYKCKVSNKALPAPIEKTISKAKGQPREPQVYTLPPSREEMTKNQVSLSCAVKGFYPSDIAVEWESNGQPENNYKTTPPVLDSDGSFFLVSKLTVDKSRWQQGNVFSCSVMHEALHNRFTQKSLSLSPGGGGGSGGGGSGGGGSGGGGSDIQMTQSPSSLSASVGDRVTITCRASQDIRSNLNWYQQKPGGAVKLLIYYTSRLHSGVPSRFSGSGSGTDYTLTISSLQPEDFATYFCQQSEKLPRTFGGGTKVEIR
# light: EIVLTQSPATLSLSPGERATLSCRASSSVSYMHWYQQKPGQAPRPWIYATSNLASGIPARFSGSRSGTDYTLTISSLEPEDFAVYYCQQWSSNTLTFGGGTKVEIKRTVAAPSVFIFPPSDEQLKSGTASVVCLLNNFYPREAKVQWKVDNALQSGNSQESVTEQDSKDSTYSLSSTLTLSKADYEKHKVYACEVTHQGLSSPVTKSFNRGEC
# notes: Tri-specific antibody: B7H3 Fabs, central CD3 Fv, terminal CD137 Fv; Flexible linker is (G4S)2
# B2: Ly2368 (other)
# chain 1: QVQLVQSGAEVKKPGASVKVSCKASGYTFTSYVMHWVRQKPGQGLEWIGYINPYNEGTESTDKFKGRATMTSDKSTSTVYMELSSLRSEDTAVYYCASIYYGYEGTYFGVWGQGTLVTVSSASTKGPSVFPLAPSSKSTSGGTAALGCLVKDYFPEPVTVSWNSGALTSGVHTFPAVLQSSGLYSLSSVVTVPSSSLGTQTYICNVNHKPSNTKVDKKVEPKSCEVQLVESGGGLVQPGGSLRLSCAASGFTFSTYAMNWVRQAPGKGLEWVGRIRSKYNNYATYYADSVKGRFTISRDDSKNSLYLQMNSLKTEDTAVYYCVRHGNFGNSYVSWFAYWGQGTLVTVSSGGGGSDKTHTCPPCPAPEAAGPSVFLFPPKPKDTLMISRTPEVTCVVVDVSHEDPEVKFNWYVDGVEVHNAKTKPREEQYNSTYRVVSVLTVLHQDWLNGKEYKCKVSNKALPAPIEKTISKAKGQPREPQVYTLPPSREEMTKNQVSLWCLVKGFYPSDIAVEWESNGQPENNYKTTPPVLDSDGSFFLYSKLTVDKSRWQQGNVFSCSVMHEALHNHYTQKSLSLSPGGGGGSGGGGSGGGGSGGGGSQVQLVQSGAEVKKPGASVKVSCKASGYTFAGFEMHWVRQAPGQGLEWMGAIDPKTGGTDYNQKFKDRVTMTRDTSISTAYMELSRLRSDDTAVYYCARDLGYFDVWGQGTLVTVSS
# chain 2: QVQLVQSGAEVKKPGASVKVSCKASGYTFTSYVMHWVRQKPGQGLEWIGYINPYNEGTESTDKFKGRATMTSDKSTSTVYMELSSLRSEDTAVYYCASIYYGYEGTYFGVWGQGTLVTVSSASTKGPSVFPLAPSSKSTSGGTAALGCLVKDYFPEPVTVSWNSGALTSGVHTFPAVLQSSGLYSLSSVVTVPSSSLGTQTYICNVNHKPSNTKVDKKVEPKSCQAVVTQEPSLTVSPGGTVTLTCRSSTGAVTTSNYANWVQQKPGQAPRGLIGGTNKRAPWTPARFSGSLLGGKAALTITGAQAEDEADYYCALWYSNLWVFGGGTKLTVLGGGGSDKTHTCPPCPAPEAAGPSVFLFPPKPKDTLMISRTPEVTCVVVDVSHEDPEVKFNWYVDGVEVHNAKTKPREEQYNSTYRVVSVLTVLHQDWLNGKEYKCKVSNKALPAPIEKTISKAKGQPREPQVYTLPPSREEMTKNQVSLSCAVKGFYPSDIAVEWESNGQPENNYKTTPPVLDSDGSFFLVSKLTVDKSRWQQGNVFSCSVMHEALHNRFTQKSLSLSPGGGGGSGGGGSGGGGSGGGGSDIQMTQSPSSLSASVGDRVTITCRASQDIRSNLNWYQQKPGGAVKLLIYYTSRLHSGVPSRFSGSGSGTDYTLTISSLQPEDFATYFCQQSEKLPRTFGGGTKVEIR
# light: B1 light
# notes: Tri-specific antibody: B7H3 Fabs, central CD3 Fv, terminal CD137 Fv; It has no flexible linker
# B3: Ly2384 (other)
# chain 1: QVQLVQSGAEVKKPGASVKVSCKASGYTFTSYVMHWVRQKPGQGLEWIGYINPYNEGTESTDKFKGRATMTSDKSTSTVYMELSSLRSEDTAVYYCASIYYGYEGTYFGVWGQGTLVTVSSASTKGPSVFPLAPSSKSTSGGTAALGCLVKDYFPEPVTVSWNSGALTSGVHTFPAVLQSSGLYSLSSVVTVPSSSLGTQTYICNVNHKPSNTKVDKKVEPKSCGGGSEVQLVESGGGLVQPGGSLRLSCAASGFTFSTYAMNWVRQAPGKGLEWVGRIRSKYNNYATYYADSVKGRFTISRDDSKNSLYLQMNSLKTEDTAVYYCVRHGNFGNSYVSWFAYWGQGTLVTVSSGGGGSDKTHTCPPCPAPEAAGPSVFLFPPKPKDTLMISRTPEVTCVVVDVSHEDPEVKFNWYVDGVEVHNAKTKPREEQYNSTYRVVSVLTVLHQDWLNGKEYKCKVSNKALPAPIEKTISKAKGQPREPQVYTLPPSREEMTKNQVSLWCLVKGFYPSDIAVEWESNGQPENNYKTTPPVLDSDGSFFLYSKLTVDKSRWQQGNVFSCSVMHEALHNHYTQKSLSLSPGGGGGSGGGGSGGGGSGGGGSQVQLVQSGAEVKKPGASVKVSCKASGYTFAGFEMHWVRQAPGQGLEWMGAIDPKTGGTDYNQKFKDRVTMTRDTSISTAYMELSRLRSDDTAVYYCARDLGYFDVWGQGTLVTVSS
# chain 2: QVQLVQSGAEVKKPGASVKVSCKASGYTFTSYVMHWVRQKPGQGLEWIGYINPYNEGTESTDKFKGRATMTSDKSTSTVYMELSSLRSEDTAVYYCASIYYGYEGTYFGVWGQGTLVTVSSASTKGPSVFPLAPSSKSTSGGTAALGCLVKDYFPEPVTVSWNSGALTSGVHTFPAVLQSSGLYSLSSVVTVPSSSLGTQTYICNVNHKPSNTKVDKKVEPKSCGGGSQAVVTQEPSLTVSPGGTVTLTCRSSTGAVTTSNYANWVQQKPGQAPRGLIGGTNKRAPWTPARFSGSLLGGKAALTITGAQAEDEADYYCALWYSNLWVFGGGTKLTVLGGGGSDKTHTCPPCPAPEAAGPSVFLFPPKPKDTLMISRTPEVTCVVVDVSHEDPEVKFNWYVDGVEVHNAKTKPREEQYNSTYRVVSVLTVLHQDWLNGKEYKCKVSNKALPAPIEKTISKAKGQPREPQVYTLPPSREEMTKNQVSLSCAVKGFYPSDIAVEWESNGQPENNYKTTPPVLDSDGSFFLVSKLTVDKSRWQQGNVFSCSVMHEALHNRFTQKSLSLSPGGGGGSGGGGSGGGGSGGGGSDIQMTQSPSSLSASVGDRVTITCRASQDIRSNLNWYQQKPGGAVKLLIYYTSRLHSGVPSRFSGSGSGTDYTLTISSLQPEDFATYFCQQSEKLPRTFGGGTKVEIR
# light: B1 light
# notes: Tri-specific antibody: B7H3 Fabs, central CD3 Fv, terminal CD137 Fv; Flexible linker is G3S
# B4: Ly2367 (other)
# chain 1: QVQLVQSGAEVKKPGASVKVSCKASGYTFTSYVMHWVRQKPGQGLEWIGYINPYNEGTESTDKFKGRATMTSDKSTSTVYMELSSLRSEDTAVYYCASIYYGYEGTYFGVWGQGTLVTVSSASTKGPSVFPLAPSSKSTSGGTAALGCLVKDYFPEPVTVSWNSGALTSGVHTFPAVLQSSGLYSLSSVVTVPSSSLGTQTYICNVNHKPSNTKVDKKVEPKSCGGGGSEVQLVESGGGLVQPGGSLRLSCAASGFTFSTYAMNWVRQAPGKGLEWVGRIRSKYNNYATYYADSVKGRFTISRDDSKNSLYLQMNSLKTEDTAVYYCVRHGNFGNSYVSWFAYWGQGTLVTVSSGGGGSDKTHTCPPCPAPEAAGPSVFLFPPKPKDTLMISRTPEVTCVVVDVSHEDPEVKFNWYVDGVEVHNAKTKPREEQYNSTYRVVSVLTVLHQDWLNGKEYKCKVSNKALPAPIEKTISKAKGQPREPQVYTLPPSREEMTKNQVSLWCLVKGFYPSDIAVEWESNGQPENNYKTTPPVLDSDGSFFLYSKLTVDKSRWQQGNVFSCSVMHEALHNHYTQKSLSLSPGGGGGSGGGGSGGGGSGGGGSQVQLVQSGAEVKKPGASVKVSCKASGYTFAGFEMHWVRQAPGQGLEWMGAIDPKTGGTDYNQKFKDRVTMTRDTSISTAYMELSRLRSDDTAVYYCARDLGYFDVWGQGTLVTVSS
# chain 2: QVQLVQSGAEVKKPGASVKVSCKASGYTFTSYVMHWVRQKPGQGLEWIGYINPYNEGTESTDKFKGRATMTSDKSTSTVYMELSSLRSEDTAVYYCASIYYGYEGTYFGVWGQGTLVTVSSASTKGPSVFPLAPSSKSTSGGTAALGCLVKDYFPEPVTVSWNSGALTSGVHTFPAVLQSSGLYSLSSVVTVPSSSLGTQTYICNVNHKPSNTKVDKKVEPKSCGGGGSQAVVTQEPSLTVSPGGTVTLTCRSSTGAVTTSNYANWVQQKPGQAPRGLIGGTNKRAPWTPARFSGSLLGGKAALTITGAQAEDEADYYCALWYSNLWVFGGGTKLTVLGGGGSDKTHTCPPCPAPEAAGPSVFLFPPKPKDTLMISRTPEVTCVVVDVSHEDPEVKFNWYVDGVEVHNAKTKPREEQYNSTYRVVSVLTVLHQDWLNGKEYKCKVSNKALPAPIEKTISKAKGQPREPQVYTLPPSREEMTKNQVSLSCAVKGFYPSDIAVEWESNGQPENNYKTTPPVLDSDGSFFLVSKLTVDKSRWQQGNVFSCSVMHEALHNRFTQKSLSLSPGGGGGSGGGGSGGGGSGGGGSDIQMTQSPSSLSASVGDRVTITCRASQDIRSNLNWYQQKPGGAVKLLIYYTSRLHSGVPSRFSGSGSGTDYTLTISSLQPEDFATYFCQQSEKLPRTFGGGTKVEIR
# light: B1 light
# notes: Tri-specific antibody: B7H3 Fabs, central CD3 Fv, terminal CD137 Fv; Flexible linker is G4S
# Molecular target: T1, B7H3
# Assay: ELISA or FCM (Example 2)
row,Binder,binding result
1,B1,binds
2,B2,binds
3,B3,binds
4,B4,binds
